According to US8097443B2, “Nucleotidyltransferases with enhanced nucleotide triphosphate flexibility” (priority 2007, dated 2012):

How the values were obtained:
Assay in all cases: purified protein, by the assay type
Conditions in all cases: other: Wild-type RmlA, 10 mM glucose-1-phosphate, 0.05-25 μM enzyme, [NTP] + 5 mM MgCl2, 100 mM Tris-HCl pH 8.0, 37° C.
[1] = tested on: O=c1ccn([C@@H]2O[C@H](COP(=O)(O)OP(=O)(O)OP(=O)(O)O)[C@@H](O)[C@H]2O)c(=O)[nH]1
Experimental: (§1) In a typical reaction, sugar-1-phosphate (10 mM final) and enzyme (0.01-50 μM) were mixed with NTP (0.01-40 mM) in the presence of MgCl2 ([NTP]+5 mM) and 10 U/mL inorganic pyrophosphatase (Sigma, St. Louis, Mo., USA) in 100 mM Tris HCl, pH 8.0 (20 μL final volume). Typical reactions were analyzed after 10 min at 37° C. and reaction times were extended for some slow reacting sugar/NTP combinations. Reactions were stopped by the addition of 80 μL prewarmed HPLC buffer and heat inactivation (95° C., 5 min). The amount of enzyme used and the incubation time was adjusted so that the reactions never proceeded to more than 10% turnover for kinetics, or 30% for activity assays.
(§2) Kinetic Measurements—Pseudo first order kinetics were obtained by fixing glucose-1-phosphate at a saturating concentration of 10 mM (Barton et al. (2001) Nat Struct Biol 8, 545-551), and titrating NTPs. At least eight different concentrations in the range of ¼×KM to 4×KM (0.09-20 mM for dTTP, 0.2-40 mM for others) were assayed in triplicate. Reaction rates were confirmed to be linear over twice the incubation time. Activities were corrected for time and enzyme concentrations, and the kinetic curves were fit to the Michaelis-Menton equation using SigmaPlot with the Enzyme Kinetics module (SPSS, Chicago, Ill., USA).

[2] = tested on: Nc1nc2c(ncn2[C@@H]2O[C@H](COP(=O)(O)OP(=O)(O)OP(=O)(O)O)[C@@H](O)[C@H]2O)c(=O)[nH]1
Experimental: as §1, §2

[3] = tested on: Nc1ncnc2c1ncn2[C@H]1C[C@H](O)[C@@H](COP(=O)(O)OP(=O)(O)OP(=O)(O)O)O1
Experimental: as §1, §2

[4] = tested on: Nc1ccn([C@H]2C[C@H](O)[C@@H](COP(=O)(O)OP(=O)(O)OP(=O)(O)O)O2)c(=O)n1
Experimental: as §1, §2

[5] = tested on: Nc1nc2c(ncn2[C@H]2C[C@H](O)[C@@H](COP(=O)(O)OP(=O)(O)OP(=O)(O)O)O2)c(=O)[nH]1
Experimental: as §1, §2

[6] = tested on: Nc1ccn([C@@H]2O[C@H](COP(=O)(O)OP(=O)(O)OP(=O)(O)O)[C@@H](O)[C@H]2O)c(=O)n1
Experimental: as §1, §2

wt RmlA (glucose-1-phosphate thymidylyltransferase) (Salmonella enterica subsp. enterica serovar Typhimurium str. LT2)
Km [1]: 4.6 ± 0.7 mM
kcat [1]: 41 ± 2.17 s⁻¹
Km [2]: 8.5 ± 0.6 mM
kcat [2]: 0.14 ± 0.0033 s⁻¹
Km [3]: 7.8 ± 0.9 mM
kcat [3]: 1.88 ± 0.083 s⁻¹
Km [4]: 10.5 ± 1.1 mM
kcat [4]: 1.22 ± 0.05 s⁻¹
Km [5]: 3.7 ± 0.5 mM
kcat [5]: 2.12 ± 0.083 s⁻¹
Km [6]: 13.7 ± 1.1 mM
kcat [6]: 0.0983 ± 0.0033 s⁻¹
